Source: patent US20210032299A1
Starred links: 1 amine or outer side, 2 acyl side, 3 side chain; linkers in the order of their positions; H or OH if unused. Non-standard residues stand in square brackets, D forms with d. Groups on a side chain read outwards from the residue. No end group written: not given here. *: point of attachment. C20 diacid = O=C(O)CCCCCCCCCCCCCCCCCCC(=O)*; C18 diacid = O=C(O)CCCCCCCCCCCCCCCCC(=O)*; γGlu = O=C(O)[C@H](CCC(=O)[*:2])N[*:1]; 4Pal = N[C@@H](Cc1ccncc1)C(=O)O; αMeL = CC(C)C[C@](C)(N)C(=O)O; Orn = NCCC[C@H](N)C(=O)O; AEEA = NCCOCCOCC(=O)O; Aib = CC(C)(N)C(=O)O

T1: human glucose-dependent insulinotropic polypeptide (GIP) receptor (human), P48546
T1 chain: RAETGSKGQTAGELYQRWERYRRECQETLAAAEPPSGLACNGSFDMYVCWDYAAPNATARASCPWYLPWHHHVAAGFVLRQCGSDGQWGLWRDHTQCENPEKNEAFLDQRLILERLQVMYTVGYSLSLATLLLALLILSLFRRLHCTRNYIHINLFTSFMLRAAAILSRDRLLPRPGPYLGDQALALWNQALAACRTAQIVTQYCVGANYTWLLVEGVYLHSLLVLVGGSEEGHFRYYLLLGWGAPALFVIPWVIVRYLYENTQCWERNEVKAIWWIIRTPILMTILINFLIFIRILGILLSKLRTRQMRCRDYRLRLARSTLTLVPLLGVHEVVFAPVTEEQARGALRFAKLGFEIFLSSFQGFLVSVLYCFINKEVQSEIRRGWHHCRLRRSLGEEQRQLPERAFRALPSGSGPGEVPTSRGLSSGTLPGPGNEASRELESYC


Target: T1, human glucose-dependent insulinotropic …
Test: SPA, displacement of [125I]-GIP from hGIPR membranes, 0.1% bacitracin

Binder | Ki [nM]
Y[Aib]EGTFISDYSI[αMeL]LD[Orn]IHQ[Aib]EFV[dE]YK([AEEA-AEEA-γGlu-C20 diacid])LEGGPSSGAPPPS-NH2 (N-terminus assumed; SMILES CC[C@H](C)[C@H](NC(=O)[C@H](CCCN)NC(=O)[C@H](CC(=O)O)NC(=O)[C@H](CC(C)C)NC(=O)[C@](C)(CC(C)C)NC(=O)[C@@H](NC(=O)[C@H](CO)NC(=O)[C@H](Cc1ccc(O)cc1)NC(=O)[C@H](CC(=O)O)NC(=O)[C@H](CO)NC(=O)[C@@H](NC(=O)[C@H](Cc1ccccc1)NC(=O)[C@@H](NC(=O)CNC(=O)[C@H](CCC(=O)O)NC(=O)C(C)(C)NC(=O)[C@@H](N)Cc1ccc(O)cc1)[C@@H](C)O)[C@@H](C)CC)[C@@H](C)CC)C(=O)N[C@@H](Cc1c[nH]cn1)C(=O)N[C@@H](CCC(N)=O)C(=O)NC(C)(C)C(=O)N[C@@H](CCC(=O)O)C(=O)N[C@@H](Cc1ccccc1)C(=O)N[C@H](C(=O)N[C@H](CCC(=O)O)C(=O)N[C@@H](Cc1ccc(O)cc1)C(=O)N[C@@H](CCCCNC(=O)COCCOCCNC(=O)COCCOCCNC(=O)CC[C@H](NC(=O)CCCCCCCCCCCCCCCCCCC(=O)O)C(=O)O)C(=O)N[C@@H](CC(C)C)C(=O)N[C@@H](CCC(=O)O)C(=O)NCC(=O)NCC(=O)N1CCC[C@H]1C(=O)N[C@@H](CO)C(=O)N[C@@H](CO)C(=O)NCC(=O)N[C@@H](C)C(=O)N1CCC[C@H]1C(=O)N1CCC[C@H]1C(=O)N1CCC[C@H]1C(=O)N[C@@H](CO)C(N)=O)C(C)C) [Example 102] | 0.164
Y[Aib]EGTFISDYSI[αMeL]LD[Orn]IHQ[Aib]DFVEYK([AEEA-AEEA-γGlu-C18 diacid])LEGGPSSGAPPPS-NH2 (N-terminus assumed; SMILES CC[C@H](C)[C@H](NC(=O)[C@H](CCCN)NC(=O)[C@H](CC(=O)O)NC(=O)[C@H](CC(C)C)NC(=O)[C@](C)(CC(C)C)NC(=O)[C@@H](NC(=O)[C@H](CO)NC(=O)[C@H](Cc1ccc(O)cc1)NC(=O)[C@H](CC(=O)O)NC(=O)[C@H](CO)NC(=O)[C@@H](NC(=O)[C@H](Cc1ccccc1)NC(=O)[C@@H](NC(=O)CNC(=O)[C@H](CCC(=O)O)NC(=O)C(C)(C)NC(=O)[C@@H](N)Cc1ccc(O)cc1)[C@@H](C)O)[C@@H](C)CC)[C@@H](C)CC)C(=O)N[C@@H](Cc1c[nH]cn1)C(=O)N[C@@H](CCC(N)=O)C(=O)NC(C)(C)C(=O)N[C@@H](CC(=O)O)C(=O)N[C@@H](Cc1ccccc1)C(=O)N[C@H](C(=O)N[C@@H](CCC(=O)O)C(=O)N[C@@H](Cc1ccc(O)cc1)C(=O)N[C@@H](CCCCNC(=O)COCCOCCNC(=O)COCCOCCNC(=O)CC[C@H](NC(=O)CCCCCCCCCCCCCCCCC(=O)O)C(=O)O)C(=O)N[C@@H](CC(C)C)C(=O)N[C@@H](CCC(=O)O)C(=O)NCC(=O)NCC(=O)N1CCC[C@H]1C(=O)N[C@@H](CO)C(=O)N[C@@H](CO)C(=O)NCC(=O)N[C@@H](C)C(=O)N1CCC[C@H]1C(=O)N1CCC[C@H]1C(=O)N1CCC[C@H]1C(=O)N[C@@H](CO)C(N)=O)C(C)C) [Example 103] | 0.0405
Y[Aib]EGTFISDYSI[αMeL]LD[Orn]IHQ[Aib]EFVEYK([AEEA-AEEA-γGlu-C20 diacid])LETGPSSGAPPPS-NH2 (N-terminus assumed; SMILES CC[C@H](C)[C@H](NC(=O)[C@H](CCCN)NC(=O)[C@H](CC(=O)O)NC(=O)[C@H](CC(C)C)NC(=O)[C@](C)(CC(C)C)NC(=O)[C@@H](NC(=O)[C@H](CO)NC(=O)[C@H](Cc1ccc(O)cc1)NC(=O)[C@H](CC(=O)O)NC(=O)[C@H](CO)NC(=O)[C@@H](NC(=O)[C@H](Cc1ccccc1)NC(=O)[C@@H](NC(=O)CNC(=O)[C@H](CCC(=O)O)NC(=O)C(C)(C)NC(=O)[C@@H](N)Cc1ccc(O)cc1)[C@@H](C)O)[C@@H](C)CC)[C@@H](C)CC)C(=O)N[C@@H](Cc1c[nH]cn1)C(=O)N[C@@H](CCC(N)=O)C(=O)NC(C)(C)C(=O)N[C@@H](CCC(=O)O)C(=O)N[C@@H](Cc1ccccc1)C(=O)N[C@H](C(=O)N[C@@H](CCC(=O)O)C(=O)N[C@@H](Cc1ccc(O)cc1)C(=O)N[C@@H](CCCCNC(=O)COCCOCCNC(=O)COCCOCCNC(=O)CC[C@H](NC(=O)CCCCCCCCCCCCCCCCCCC(=O)O)C(=O)O)C(=O)N[C@@H](CC(C)C)C(=O)N[C@@H](CCC(=O)O)C(=O)N[C@H](C(=O)NCC(=O)N1CCC[C@H]1C(=O)N[C@@H](CO)C(=O)N[C@@H](CO)C(=O)NCC(=O)N[C@@H](C)C(=O)N1CCC[C@H]1C(=O)N1CCC[C@H]1C(=O)N1CCC[C@H]1C(=O)N[C@@H](CO)C(N)=O)[C@@H](C)O)C(C)C) [Example 105] | 0.174
Y[Aib]EGTFISDYSI[αMeL]LDKIHQ[Aib]DFVE[4Pal]K([AEEA-AEEA-γGlu-C20 diacid])LEGGPSSGAPPPS-NH2 (N-terminus assumed; SMILES CC[C@H](C)[C@H](NC(=O)[C@H](CCCCN)NC(=O)[C@H](CC(=O)O)NC(=O)[C@H](CC(C)C)NC(=O)[C@](C)(CC(C)C)NC(=O)[C@@H](NC(=O)[C@H](CO)NC(=O)[C@H](Cc1ccc(O)cc1)NC(=O)[C@H](CC(=O)O)NC(=O)[C@H](CO)NC(=O)[C@@H](NC(=O)[C@H](Cc1ccccc1)NC(=O)[C@@H](NC(=O)CNC(=O)[C@H](CCC(=O)O)NC(=O)C(C)(C)NC(=O)[C@@H](N)Cc1ccc(O)cc1)[C@@H](C)O)[C@@H](C)CC)[C@@H](C)CC)C(=O)N[C@@H](Cc1c[nH]cn1)C(=O)N[C@@H](CCC(N)=O)C(=O)NC(C)(C)C(=O)N[C@@H](CC(=O)O)C(=O)N[C@@H](Cc1ccccc1)C(=O)N[C@H](C(=O)N[C@@H](CCC(=O)O)C(=O)N[C@@H](Cc1ccncc1)C(=O)N[C@@H](CCCCNC(=O)COCCOCCNC(=O)COCCOCCNC(=O)CC[C@H](NC(=O)CCCCCCCCCCCCCCCCCCC(=O)O)C(=O)O)C(=O)N[C@@H](CC(C)C)C(=O)N[C@@H](CCC(=O)O)C(=O)NCC(=O)NCC(=O)N1CCC[C@H]1C(=O)N[C@@H](CO)C(=O)N[C@@H](CO)C(=O)NCC(=O)N[C@@H](C)C(=O)N1CCC[C@H]1C(=O)N1CCC[C@H]1C(=O)N1CCC[C@H]1C(=O)N[C@@H](CO)C(N)=O)C(C)C) [Example 109] | 0.117
Y[Aib]EGTFISDYSI[αMeL]LD[Orn]IHQ[Aib]DFVE[4Pal]K([AEEA-AEEA-γGlu-C20 diacid])LEGGPSSGAPPPS-NH2 (N-terminus assumed; SMILES CC[C@H](C)[C@H](NC(=O)[C@H](CCCN)NC(=O)[C@H](CC(=O)O)NC(=O)[C@H](CC(C)C)NC(=O)[C@](C)(CC(C)C)NC(=O)[C@@H](NC(=O)[C@H](CO)NC(=O)[C@H](Cc1ccc(O)cc1)NC(=O)[C@H](CC(=O)O)NC(=O)[C@H](CO)NC(=O)[C@@H](NC(=O)[C@H](Cc1ccccc1)NC(=O)[C@@H](NC(=O)CNC(=O)[C@H](CCC(=O)O)NC(=O)C(C)(C)NC(=O)[C@@H](N)Cc1ccc(O)cc1)[C@@H](C)O)[C@@H](C)CC)[C@@H](C)CC)C(=O)N[C@@H](Cc1c[nH]cn1)C(=O)N[C@@H](CCC(N)=O)C(=O)NC(C)(C)C(=O)N[C@@H](CC(=O)O)C(=O)N[C@@H](Cc1ccccc1)C(=O)N[C@H](C(=O)N[C@@H](CCC(=O)O)C(=O)N[C@@H](Cc1ccncc1)C(=O)N[C@@H](CCCCNC(=O)COCCOCCNC(=O)COCCOCCNC(=O)CC[C@H](NC(=O)CCCCCCCCCCCCCCCCCCC(=O)O)C(=O)O)C(=O)N[C@@H](CC(C)C)C(=O)N[C@@H](CCC(=O)O)C(=O)NCC(=O)NCC(=O)N1CCC[C@H]1C(=O)N[C@@H](CO)C(=O)N[C@@H](CO)C(=O)NCC(=O)N[C@@H](C)C(=O)N1CCC[C@H]1C(=O)N1CCC[C@H]1C(=O)N1CCC[C@H]1C(=O)N[C@@H](CO)C(N)=O)C(C)C) [Example 108] | 0.134
Y[Aib]EGTFISDYSI[αMeL]LD[Orn]IHQ[Aib]EFVEYK([AEEA-AEEA-γGlu-C20 diacid])LEAGPSSGAPPPS-NH2 (N-terminus assumed; SMILES CC[C@H](C)[C@H](NC(=O)[C@H](CCCN)NC(=O)[C@H](CC(=O)O)NC(=O)[C@H](CC(C)C)NC(=O)[C@](C)(CC(C)C)NC(=O)[C@@H](NC(=O)[C@H](CO)NC(=O)[C@H](Cc1ccc(O)cc1)NC(=O)[C@H](CC(=O)O)NC(=O)[C@H](CO)NC(=O)[C@@H](NC(=O)[C@H](Cc1ccccc1)NC(=O)[C@@H](NC(=O)CNC(=O)[C@H](CCC(=O)O)NC(=O)C(C)(C)NC(=O)[C@@H](N)Cc1ccc(O)cc1)[C@@H](C)O)[C@@H](C)CC)[C@@H](C)CC)C(=O)N[C@@H](Cc1c[nH]cn1)C(=O)N[C@@H](CCC(N)=O)C(=O)NC(C)(C)C(=O)N[C@@H](CCC(=O)O)C(=O)N[C@@H](Cc1ccccc1)C(=O)N[C@H](C(=O)N[C@@H](CCC(=O)O)C(=O)N[C@@H](Cc1ccc(O)cc1)C(=O)N[C@@H](CCCCNC(=O)COCCOCCNC(=O)COCCOCCNC(=O)CC[C@H](NC(=O)CCCCCCCCCCCCCCCCCCC(=O)O)C(=O)O)C(=O)N[C@@H](CC(C)C)C(=O)N[C@@H](CCC(=O)O)C(=O)N[C@@H](C)C(=O)NCC(=O)N1CCC[C@H]1C(=O)N[C@@H](CO)C(=O)N[C@@H](CO)C(=O)NCC(=O)N[C@@H](C)C(=O)N1CCC[C@H]1C(=O)N1CCC[C@H]1C(=O)N1CCC[C@H]1C(=O)N[C@@H](CO)C(N)=O)C(C)C) [Example 104] | 0.134
